This is an account of results in patent US7501496 (ROCHE PALO ALTO, dated 2009).

The term Kd denotes a measure of binding affinity in units of concentration. One may read the koff as a measure of how fast the partners let go of each other. For orientation: kon means the rate constant with which the complex forms. For orientation: IC50 means the point on the concentration scale where inhibition reaches its midpoint.

The target in assay [1] is T1, human OX40L expressed on cells (K562-hOX40L cells; HUVEC) (human, UniProt P23510 1-183).
T1 sequence (looked up): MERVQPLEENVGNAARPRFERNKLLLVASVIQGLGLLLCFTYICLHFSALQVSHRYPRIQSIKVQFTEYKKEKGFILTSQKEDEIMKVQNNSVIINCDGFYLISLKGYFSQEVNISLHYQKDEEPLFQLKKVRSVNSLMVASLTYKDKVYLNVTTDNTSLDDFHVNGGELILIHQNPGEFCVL
Nature of the assay: cell-based or functional assay.

Assay [2] concerns the target T2, Recombinant soluble human OX40L fused to a Histidine tag (human, UniProt P23510 51-183).
T2 construct: extracellular domain; there it was reduced and LDS-denatured; also called hOX40L-His; hOx40L-His; not shown: Histidine tag
T2 sequence (looked up): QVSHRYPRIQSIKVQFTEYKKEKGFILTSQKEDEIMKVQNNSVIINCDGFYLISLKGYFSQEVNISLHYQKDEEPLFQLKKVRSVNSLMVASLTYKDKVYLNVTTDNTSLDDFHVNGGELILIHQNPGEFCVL
Nature of the assay: SPR, Biacore 3000; antibody captured via anti-Fcγ on CM5, hOX40L-His as analyte, 1:1 Langmuir fit; native hOX40L-His as analyte in SPR, antibody captured via Anti-hFcg, HBS-P pH 7.4, 25 C. The procedure:
(§1) Instrument: Biacore 3000, running and reaction buffer: HBS-P (10 mM HEPES, 150 mM NaCl, 0.005% Tween 20, ph 7.4), 25° C. Injection of analyte was performed at 7 concentrations between 0.78 nM and 100 nM for 3 minutes and washed with HBS-P for 5 minutes. Regeneration of the surface (carboxymethylated dextrane surface, CM) was performed by two injections of 10 mM Glycine pH 2.0 for 1 min each. The chip, assay format and sequence of injections and kinetic data correspond to the description in the following table. Kinetic data were calculated by fitting kinetic data to a 1:1 Langmuir binding model.
For orientation: Surface plasmon resonance follows binding to a sensor surface in real time, without labels.

The target of assay [3] is T2, Recombinant soluble human OX40L fused …. Nature of the assay: SPR competition; hOX40L-His (10 nM) preincubated with antibody (0.78-100 nM), injected over immobilized OX40-hFc; native hOX40L-His (10 nM) preincubated with the antibody in solution, competition for immobilized OX40-hFc. The method, then:
Instrument: Biacore 3000, running and reaction buffer: HBS-P (10 mM HEPES, 150 mM NaCl, 0.005% Tween 20, ph 7.4), 25° C. Prior to injection the analyte (10 nM) and competitor (eight concentrations between 0.78 nM and 100 nM) were preincubated for at least 20 min at 22° C. Injection of analyte+/−competitor was performed for 3 minutes and washed with HBS-P for three minutes. Regeneration of the surface was performed by two injections of 10 mM Glycine pH 2.0 for 1 min each. The chip, assay format and sequence of injections and kinetic data correspond to the description in the following table 3.

For assay [4] the target is unchanged. Nature of the assay: SPR, Biacore 3000; antibody captured via anti-Fcγ on CM5, hOX40L-His as analyte, 1:1 Langmuir fit. The procedure: as §1

B1: Human anti-human OX40L monoclonal antibody LC.005 (antibody, IgG1, V domains shown)
VH: QVQLVESGGGVVQPGRSLRLSCAASGFTFSNFGMHWVRQAPGKGLEWVAAIWYDGHDKYYSYYVKGRFTISRDNSKNTLFLQMNSLRAEDTAVYYCARDSSSWYRYFDYWGQGTLVTVSS
VL: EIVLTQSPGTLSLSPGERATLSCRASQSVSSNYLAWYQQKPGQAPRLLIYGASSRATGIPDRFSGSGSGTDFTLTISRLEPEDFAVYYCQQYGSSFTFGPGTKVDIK
notes: also called LC2010-005; hu-Mab<hOX40L>LC.005
On to B1, for which, in assay [1], the “IC50, IL-2 release of PHA-activated PBL co-stimulated with K562_OX40L cells” value worked out at 10 nM. Also, in assay [2], the Kd was under 0.015 nM, the dissociation rate constant (koff) was under 1e-06 s⁻¹ and the kon is 68400 M⁻¹ s⁻¹. Moreover, the IC50 in assay [3] was determined as 3 nM.

B2: Human anti-human OX40L monoclonal antibody LC.010 (antibody, IgG1, V domains shown)
VH: QVQLVESGGGVVQPGRSLRLSCAASGFTFSNFGMHWVRQAPGKGLEWVAAIWYDGHDKYYAYYVKGRFTISRDNSKNTLFLQMNSLRAEDTAVYYCARDSSSWYRYFDYWGQGTLVTVSS
VL: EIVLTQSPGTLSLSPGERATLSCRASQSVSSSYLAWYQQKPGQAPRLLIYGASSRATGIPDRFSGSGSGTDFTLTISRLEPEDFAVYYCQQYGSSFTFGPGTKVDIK
notes: also called LC2010-010; hu-Mab<hOX40L>LC.010
B2: in assay [4], the dissociation constant (Kd) was found to be 0.399 nM, the koff was 2.5e-05 s⁻¹ and the kon is 62500 M⁻¹ s⁻¹.

B3: Human anti-human OX40L monoclonal antibody LC.033 (antibody, V domains shown)
VH: QKQLVEFGGGVVQPGRSLRLSCAASGFTFSNYGMHWVRQAPGKGLEWVAVIWNDGSNKYYVDSVKGRFIISRDNSKNTLYLQMNSLRAEDTAVYYCARDRMGIYYYGMDVWGQGTTVTVSS
VL: EIVLTQSPATLSLSPGERATLSCRASQGVSRYLAWYQQKPGQAPRLLIYDASNRATGIPARVSGSGPGTDFTLTISSLEPEDFAVDYCQQRSNWQYTFGQGTKLEI
notes: also called LC2010-033; hu-Mab<hOX40L>LC.033
With B3, in assay [4], the Kd is under 0.014 nM, the koff was 2.09e-07 s⁻¹ and the kon stood at 70100 M⁻¹ s⁻¹.
